± gives the standard deviation of the averaged measurements.
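Note: PSI is a weighted mean of sequencing reads over stability bins, variants kept only with over 10 reads, mCherry proximal and sfGFP distal, peptide attached via GGGS linker.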

The subject of this data set is Saccharomyces cerevisiae. In words: protein stability index of tFT-peptide fusion (C-terminal peptide) (PSI (0-1 scale)); higher = more stable (slower turnover). Conditions: genetic background: wild type; temperature: 30 C.
For STPSLPPPPPSS, the protein stability index is 0.6806 ± 0.006.

For STSDAFLTFPLQ, the protein stability index came out at 0.678 ± 0.051.

STVSRHPSSPLP: the protein stability index is 0.737 ± 0.039.

SVAAGCGHGGGG showed a protein stability index of 0.657 ± 0.011.

As for SVAGDEGDRLFR, the protein stability index worked out at 0.686 ± 0.022.

With SVALSSPSRYCS, the protein stability index was 0.7137 ± 0.00077.

For the sequence SVEAGHVAERES, the protein stability index was 0.732 ± 0.061.

The sequence SVGGGGGAVGGG yielded a protein stability index of 0.68 ± 0.007.

SVGGGRWRYGGR had a protein stability index of 0.662 ± 0.04.

Take SVGGWIARTAIV: the protein stability index worked out at 0.661 ± 0.011.

Consider SVGHPAAVHHAR, for which the protein stability index turned out to be 0.675 ± 0.068.

The sequence SVGRPVACLFVH showed a protein stability index of 0.5115 ± 0.0019.

With SVLAIASVIGCL, the protein stability index worked out at 0.598 ± 0.032.

In the case of SVLAVSFLSLLV, the protein stability index amounted to 0.636 ± 0.04.

For SVLVTASSFLYF, the protein stability index was found to be 0.649 ± 0.027.

SVMWEARTEDGS had a protein stability index of 0.756 ± 0.043.

The sequence SVNHVDIANSIL showed a protein stability index of 0.647 ± 0.011.

Turning to SVNWVWNSVFDR, the protein stability index came out at 0.6826 ± 0.0024.

In turn, SVPPPLSPPPPP displayed a protein stability index of 0.668 ± 0.018.

The sequence SVRWFLIGCGGA gave a protein stability index of 0.579 ± 0.048.

For the sequence SVSLVQRSVCLD, the protein stability index was determined as 0.71 ± 0.021.

In the case of SVSMEGCVSVRG, the protein stability index was found to be 0.7009 ± 0.0036.

As for SVSPLSSSTLTA, the protein stability index was 0.65 ± 0.019.

Sequence SVSSSVGRGLRV came in with a protein stability index of 0.711 ± 0.014.

Sequence SVVSWRGRNRSV gave a protein stability index of 0.864 ± 0.065.

In turn, SVVVGTVFCRSW displayed a protein stability index of 0.615 ± 0.015.

SVWCRRRRVTNS had a protein stability index of 0.5825 ± 0.0054.

As to SVWCRWGWSDWG, the protein stability index came to 0.795 ± 0.051.

As to SVWGIVWRGNIV, the protein stability index was 0.704 ± 0.024.

SVWLISPRPLSV gave a protein stability index of 0.5639 ± 0.0032.

Sequence SVYCVLSRGNRL gave a protein stability index of 0.687 ± 0.1.

Regarding SWAGGRWRRVPV, the protein stability index was 0.658 ± 0.04.

In turn, SWEIGHLLPGTD showed a protein stability index of 0.6671 ± 0.0048.

SWFTHTQSVRCS displayed a protein stability index of 0.515 ± 0.014.

Sequence SWMDRGGAYSGI showed a protein stability index of 0.731 ± 0.11.

SWPSLDLVSRMQ showed a protein stability index of 0.676 ± 0.038.

In the case of TAKQDSGVSTPV, the protein stability index was 0.732 ± 0.12.

TAMNNGNSIHKL: the protein stability index was found to be 0.682 ± 0.041.

Regarding TASKHINYKCLA, the protein stability index is 0.711 ± 0.16.

TATYCFNALRRS registered a protein stability index of 0.72 ± 0.052.

TAVPPLFARTWQ: the protein stability index was 0.6786 ± 0.0049.

In turn, TCVRHKVQKSRE came in with a protein stability index of 0.688 ± 0.058.

On to TDWGLTPRGRVT, for which the protein stability index is 0.777 ± 0.062.

The sequence TEHLLTRGRRNT displayed a protein stability index of 0.64 ± 0.032.

TESGKEKLDVIS returned a protein stability index of 0.689 ± 0.007.

Turning to TEYHIVTLPRRC, the protein stability index came out at 0.625 ± 0.076.

Sequence TFARMYRKGSED had a protein stability index of 0.686 ± 0.0077.

Sequence TFFSAPLLPSIP gave a protein stability index of 0.73783 ± 0.00011.

In the case of TFLPAPSPTSPP, the protein stability index amounted to 0.724 ± 0.032.

TFLRGSILLVSP showed a protein stability index of 0.617 ± 0.059.

TFPHSWHISSVP: the protein stability index amounted to 0.677 ± 0.024.

With TFPPLLFVCSLL, the protein stability index was found to be 0.594 ± 0.0078.

TGDNNRGKRDYD gave a protein stability index of 0.678 ± 0.024.

In the case of TGKRADGGAEGG, the protein stability index was determined as 0.686 ± 0.0086.

TGRAPGSDVLAS returned a protein stability index of 0.7139 ± 0.0029.

Sequence TGREGARVGIGR had a protein stability index of 0.687 ± 0.01.

Consider TGREWCFERGCW, for which the protein stability index was determined as 0.842 ± 0.14.

Regarding TGRNIGRVKIYL, the protein stability index was found to be 0.665 ± 0.049.

In turn, TGSRGPHRKPPD returned a protein stability index of 0.691 ± 0.0077.

THFPFPVLFSLP showed a protein stability index of 0.592 ± 0.03.

THSPSPTTAPIP returned a protein stability index of 0.688 ± 0.011.

With THTEWVQFIRWY, the protein stability index was 0.733 ± 0.073.

With TIETKVNSKDDS, the protein stability index came out at 0.735 ± 0.031.

Regarding TIIPRHTFLPAP, the protein stability index came to 0.723 ± 0.036.

As for TIKNKKRKPKKK, the protein stability index was 0.702 ± 0.044.

TILAGSSRGTLR registered a protein stability index of 0.659 ± 0.061.

Take TINVWFARTNPD: the protein stability index was 0.7403 ± 0.0048.

For the sequence TIQPSVTNPTLN, the protein stability index turned out to be 0.686 ± 0.04.

TIRKKKNRRNKE: the protein stability index was determined as 0.731 ± 0.016.

As for TISEGMSGRRRR, the protein stability index was determined as 0.759 ± 0.013.

As for TIVQNLEIVQAR, the protein stability index was 0.648 ± 0.13.

As for TIVSFYVRFLSG, the protein stability index is 0.583 ± 0.15.

Sequence TIWLTFGRTPQS gave a protein stability index of 0.731 ± 0.042.

Take TKCGESRENARI: the protein stability index is 0.681 ± 0.022.

As to TKHRFPKYRYLG, the protein stability index was determined as 0.5868 ± 0.0011.

Sequence TKILRGQKRRAA yielded a protein stability index of 0.637 ± 0.1.

TKKKNTKKNNNT had a protein stability index of 0.67 ± 0.095.

On to TKRKEKHKIIGK, for which the protein stability index came out at 0.705 ± 0.046.

Take TKRQTIEIIKKK: the protein stability index was 0.809 ± 0.11.

With TLALQFPFKLLF, the protein stability index is 0.653 ± 0.025.

These data come from the supplement of paper PMC10724198.
